Holding throughout (assay): EMSA
In data set [1] the test system is ParB (wild type) (Pseudomonas aeruginosa (PAO1161?)). The note with it: EMSA: 5.6 pmol dsDNA with 10, 20, 30, 50 pmol His6-ParB, 37 °C, 15 min; buffer as in Kusiak et al. 2011 (not given); 10% native PAGE in TBE.
The subject of data set [2] is ParB L282A (Pseudomonas aeruginosa (PAO1161?)).
The subject of data set [3] is ParB L286A (Pseudomonas aeruginosa (PAO1161?)).
Data set [4] concerns ParB V285A (Pseudomonas aeruginosa (PAO1161?)).

The values that follow come from article PMC3542827.

In data set [1], parS2/3 (oligos #17/#18) came in with a binding signal (fold affinity (reference)) of 1. The values for the binding signal (fold affinity vs wild-type ParB) in data set [2], in data set [3] and in data set [4] were 0.5, 2 and 0.5, respectively.
